T1: EphA4(h) (human, UniProt P54764 570-986, limits assumed)
T1 sequence (looked up): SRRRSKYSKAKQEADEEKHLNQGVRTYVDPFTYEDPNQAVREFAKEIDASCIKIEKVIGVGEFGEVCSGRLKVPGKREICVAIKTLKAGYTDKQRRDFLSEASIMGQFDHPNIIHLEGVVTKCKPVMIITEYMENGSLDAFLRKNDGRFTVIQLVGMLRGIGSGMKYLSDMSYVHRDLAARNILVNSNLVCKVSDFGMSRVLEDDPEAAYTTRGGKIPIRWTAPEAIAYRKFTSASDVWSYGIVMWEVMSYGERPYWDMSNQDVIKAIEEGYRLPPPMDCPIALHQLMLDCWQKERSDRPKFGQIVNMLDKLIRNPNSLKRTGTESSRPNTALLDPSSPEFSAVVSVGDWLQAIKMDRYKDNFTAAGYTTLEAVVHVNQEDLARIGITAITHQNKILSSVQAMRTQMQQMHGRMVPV

T2: TBK1(h) (human, UniProt Q9UHD2 1-729)
T2 sequence (looked up): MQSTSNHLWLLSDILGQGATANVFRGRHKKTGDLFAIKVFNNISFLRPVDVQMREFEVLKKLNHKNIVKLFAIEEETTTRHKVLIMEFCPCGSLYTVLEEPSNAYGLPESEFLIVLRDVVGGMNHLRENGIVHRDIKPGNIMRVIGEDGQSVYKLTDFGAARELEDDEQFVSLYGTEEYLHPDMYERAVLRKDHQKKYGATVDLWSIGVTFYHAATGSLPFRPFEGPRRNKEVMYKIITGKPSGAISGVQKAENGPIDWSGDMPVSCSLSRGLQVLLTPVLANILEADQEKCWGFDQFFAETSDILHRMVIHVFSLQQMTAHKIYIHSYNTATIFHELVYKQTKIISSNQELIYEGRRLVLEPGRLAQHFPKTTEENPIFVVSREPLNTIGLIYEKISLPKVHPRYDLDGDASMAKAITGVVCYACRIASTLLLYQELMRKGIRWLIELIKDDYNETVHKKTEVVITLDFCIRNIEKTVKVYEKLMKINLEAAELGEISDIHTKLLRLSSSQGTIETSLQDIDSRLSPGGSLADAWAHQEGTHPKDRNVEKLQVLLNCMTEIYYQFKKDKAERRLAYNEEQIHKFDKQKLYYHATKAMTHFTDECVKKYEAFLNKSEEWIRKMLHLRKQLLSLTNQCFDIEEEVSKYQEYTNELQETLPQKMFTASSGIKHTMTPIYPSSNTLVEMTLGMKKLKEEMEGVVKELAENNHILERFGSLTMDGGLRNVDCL

T3: EphA2(h) (human, UniProt P29317 559-976, limits assumed)
T3 sequence (looked up): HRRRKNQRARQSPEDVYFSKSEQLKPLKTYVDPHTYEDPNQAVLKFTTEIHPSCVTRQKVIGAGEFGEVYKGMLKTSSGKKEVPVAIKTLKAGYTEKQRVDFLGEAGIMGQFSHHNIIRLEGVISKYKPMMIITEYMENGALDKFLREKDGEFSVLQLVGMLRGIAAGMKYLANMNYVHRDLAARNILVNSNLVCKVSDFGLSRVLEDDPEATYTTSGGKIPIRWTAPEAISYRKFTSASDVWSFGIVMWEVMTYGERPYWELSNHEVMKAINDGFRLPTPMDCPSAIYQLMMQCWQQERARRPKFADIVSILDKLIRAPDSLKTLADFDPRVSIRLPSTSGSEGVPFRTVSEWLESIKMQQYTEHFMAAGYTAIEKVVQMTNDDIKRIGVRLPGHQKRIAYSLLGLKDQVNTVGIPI

T4: Itk(h) (human, UniProt Q08881 352-620, limits assumed)
T4 sequence (looked up): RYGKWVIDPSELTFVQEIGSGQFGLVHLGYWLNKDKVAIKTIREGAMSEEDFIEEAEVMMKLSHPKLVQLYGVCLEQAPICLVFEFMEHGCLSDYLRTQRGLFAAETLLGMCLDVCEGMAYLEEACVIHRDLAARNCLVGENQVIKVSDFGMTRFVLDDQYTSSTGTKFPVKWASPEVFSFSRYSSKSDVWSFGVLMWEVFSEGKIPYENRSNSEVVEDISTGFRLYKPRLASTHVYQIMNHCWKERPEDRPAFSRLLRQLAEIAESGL


Columns and labels:
Experiment in all cases: cell-based or functional assay
CDK2/cyclinA(h) = CDK2/cyclinA(h) (human, UniProt P24941 1-298; P20248 1-432)
Met(h) = Met(h) (human, UniProt P08581 956-1390, limits assumed)
CaMKI(h) = CaMKI(h) (human, UniProt Q14012 1-370)
MARK1(h) = MARK1(h) (human, UniProt Q9P0L2 1-795, limits assumed)
EphA4(h) = molecular target: T1, EphA4(h)
EGFR(T790M)(h) = EGFR(T790M)(h) (human, UniProt P00533 696-1210, limits assumed)
MAPK2(h) = MAPK2(h) (human, UniProt P28482 1-360)
Fgr(h) = Fgr(h) (human, UniProt P09769 1-529)
BTK(h) = BTK(h) (human, UniProt Q06187 1-659)
TrkA(h) = TrkA(h) (human, UniProt P04629 441-796, limits assumed)
TBK1(h) = molecular target: T2, TBK1(h)
PAK2(h) = PAK2(h) (human, UniProt Q13177 1-524)
EphA2(h) = molecular target: T3, EphA2(h)
Itk(h) = molecular target: T4, Itk(h)
CDK7/cyclinH/MAT1(h) = CDK7/cyclinH/MAT1(h) (human, UniProt P50613 1-346; P51946 1-323; P51948 1-309)
CHK2(I157T)(h) = CHK2(I157T)(h) (human, UniProt O96017 5-543, limits assumed)
JNK2α2(h) = JNK2α2(h) (human, UniProt P45984 1-424)
MEK1(h) = MEK1(h) (human, UniProt Q02750 1-393)

| Binder | % activity, 100 µM (CDK2/cyclinA(h)) | % activity, 100 µM (Met(h)) | % activity, 100 µM (CaMKI(h)) | % activity, 100 µM (MARK1(h)) | % activity, 100 µM (EphA4(h)) | % activity, 100 µM (EGFR(T790M)(h)) | % activity, 100 µM (MAPK2(h)) | % activity, 100 µM (Fgr(h)) | % activity, 100 µM (BTK(h)) | % activity, 100 µM (TrkA(h)) | % activity, 100 µM (TBK1(h)) | % activity, 100 µM (PAK2(h)) | % activity, 100 µM (EphA2(h)) | % activity, 100 µM (Itk(h)) | % activity, 100 µM (CDK7/cyclinH/MAT1(h)) | % activity, 100 µM (CHK2(I157T)(h)) | % activity, 100 µM (JNK2α2(h)) | % activity, 100 µM (MEK1(h)) |
| --- | --- | --- | --- | --- | --- | --- | --- | --- | --- | --- | --- | --- | --- | --- | --- | --- | --- | --- |
| KAFAKLAARLYRKALARQLGVAA [MMI-0400] | 92% | 62% | 0% | 120% | 65% | 106% | 93% | 47% | 94% | 17% | 39% | 59% | 17% | 63% | 47% | 41% | 96% | 77% |
| FAKLAARLYRKALARQLGVAA [MMI-0300] | 86% | 65% | 1% | 132% | 88% | 100% | 98% | 60% | 102% | 25% | 37% | 65% | 31% | 77% | 65% | 43% | 98% | 77% |
